{"source": "patent US20130195871A1", "about": "(AbbVie / Abbott, published 2013)", "binders": {"B1": {"name": "DVD2318 (bispecific antibody)", "VH": "EVQLVQSGGGLVKPGGSLRLSCAASGFTFSSYAMHWVRQAPGKGLEWVAVISYDGSNKYYADSVKGRFTISRDNSKNTLYLQMNSLRAEDTAVYYCARFSGWPNNYYYYGMDVWGQGTTVTVSSASTKGPEVQLVESGGGLVQPGGSLRLSCAASGFTFSIYSMNWVRQAPGKGLEWVSYISSSSSTIYYADSVKGRFTISRDNAKNSLYLQMNSLRDEDTAVYYCARDRGDFDAFDIWGQGTMVTVSS", "VL": "DVVMTQSPLSLPVTPGEPASISCRSSQSLLHSNGFNYVDWYLQKPGQSPHLLIYFGSYRASGVPDRFSGSGSGTDFTLKISRVEAEDVGVYYCMQALQTPPWTFGQGTKVEIRRTVAAPDIQMTQSPSSLSASVGDRVTITCQASQDITNYLNWYQQKPGKAPKLLIYDASNLETGVPSRFSGSGSGTDFTFTISSLQPEDIATYNCQQCENFPITFGQGTRLEIK", "notes": "DVD-Ig, outer AB005 / inner AB063"}, "B2": {"name": "DVD2274 (bispecific antibody)", "VH": "EVQLVESGGGLVQPGGSLRLSCAASGFTFTDYTMDWVRQAPGKGLEWVADVNPNSGGSIYNQRFKGRFTLSVDRSKNTLYLQMNSLRAEDTAVYYCARNLGPSFYFDYWGQGTLVTVSSASTKGPQVQLQQWGAGLLKPSETLSLTCAVYGGSFSGYYWSWIRQPPGKGLEWIGEINHSGSTNYNPSLKSRVTISVETSKNQFSLKLSSVTAADTAVYYCARDKWTWYFDLWGRGTLVTVSS", "VL": "DIQMTQSPSSLSASVGDRVTITCKASQDVSIGVAWYQQKPGKAPKLLIYSASYRYTGVPSRFSGSGSGTDFTLTISSLQPEDFATYYCQQYYIYPYTFGQGTKVEIKRTVAAPDIEMTQSPDSLAVSLGERATINCRSSQSVLYSSSNRNYLAWYQQNPGQPPKLLIYWASTRESGVPDRFSGSGSGTDFTLTISSLQAEDVAVYYCQQYYSTPRTFGQGTKVEIK", "notes": "DVD-Ig, outer AB080 / inner AB062"}, "B3": {"name": "DVD2320 (bispecific antibody)", "VH": "EVQLVQSGGGLVKPGGSLRLSCAASGFTFSSYAMHWVRQAPGKGLEWVAVISYDGSNKYYADSVKGRFTISRDNSKNTLYLQMNSLRAEDTAVYYCARFSGWPNNYYYYGMDVWGQGTTVTVSSASTKGPEVQLLESGGGLVQPGGSLRLSCAASGFTFSHYVMAWVRQAPGKGLEWVSSISSSGGWTLYADSVKGRFTISRDNSKNTLYLQMNSLRAEDTAVYYCTRGLKMATIFDYWGQGTLVTVSS", "VL": "DVVMTQSPLSLPVTPGEPASISCRSSQSLLHSNGFNYVDWYLQKPGQSPHLLIYFGSYRASGVPDRFSGSGSGTDFTLKISRVEAEDVGVYYCMQALQTPPWTFGQGTKVEIRRTVAAPQSALTQPASVSGSPGQSITISCTGTSSDVGSYNVVSWYQQHPGKAPKLIIYEVSQRPSGVSNRFSGSKSGNTASLTISGLQTEDEADYYCCSYAGSSIFVIFGGGTKVTVL", "notes": "DVD-Ig, outer AB005 / inner AB116"}, "B4": {"name": "DVD2322 (bispecific antibody)", "VH": "EVQLVQSGGGLVKPGGSLRLSCAASGFTFSSYAMHWVRQAPGKGLEWVAVISYDGSNKYYADSVKGRFTISRDNSKNTLYLQMNSLRAEDTAVYYCARFSGWPNNYYYYGMDVWGQGTTVTVSSASTKGPQVQLQQWGAGLLKPSETLSLTCAVYGGSFSGYYWSWIRQPPGKGLEWIGEINHSGSTNYNPSLKSRVTISVETSKNQFSLKLSSVTAADTAVYYCARDKWTWYFDLWGRGTLVTVSS", "VL": "DVVMTQSPLSLPVTPGEPASISCRSSQSLLHSNGFNYVDWYLQKPGQSPHLLIYFGSYRASGVPDRFSGSGSGTDFTLKISRVEAEDVGVYYCMQALQTPPWTFGQGTKVEIRRTVAAPDIEMTQSPDSLAVSLGERATINCRSSQSVLYSSSNRNYLAWYQQNPGQPPKLLIYWASTRESGVPDRFSGSGSGTDFTLTISSLQAEDVAVYYCQQYYSTPRTFGQGTKVEIK", "notes": "DVD-Ig, outer AB005 / inner AB062"}, "B5": {"name": "DVD2334 (bispecific antibody)", "VH": "QVQLQESGPGLVKPSEILSLTCTVSGGSISSHYWSWVRQPPGKGLEWIGYIYYSGSTNYNPSLKSRVTISVDTSKNQFSLNLSSVTAADTAVYYCARIPNYYDRSGYYPGYWYFDLWGRGTLVTVSSASTKGPQVQLQQWGAGLLKPSETLSLTCAVYGGSFSGYYWSWIRQPPGKGLEWIGEINHSGSTNYNPSLKSRVTISVETSKNQFSLKLSSVTAADTAVYYCARDKWTWYFDLWGRGTLVTVSS", "VL": "QAVLTQPSSLSAPPGASASLTCTLRSGFNVDSYRISWYQQKPGSPPQYLLRYKSDSDKQQGSGVPSRFSGSKDASANAGILLISGLQSEDEADYYCMIWHSSAWVFGGGTKLTVLRQPKAAPDIEMTQSPDSLAVSLGERATINCRSSQSVLYSSSNRNYLAWYQQNPGQPPKLLIYWASTRESGVPDRFSGSGSGTDFTLTISSLQAEDVAVYYCQQYYSTPRTFGQGTKVEIK", "notes": "DVD-Ig, outer AB034 / inner AB062"}, "B6": {"name": "DVD2332 (bispecific antibody)", "VH": "QVQLQESGPGLVKPSEILSLTCTVSGGSISSHYWSWVRQPPGKGLEWIGYIYYSGSTNYNPSLKSRVTISVDTSKNQFSLNLSSVTAADTAVYYCARIPNYYDRSGYYPGYWYFDLWGRGTLVTVSSASTKGPEVQLLESGGGLVQPGGSLRLSCAASGFTFSHYVMAWVRQAPGKGLEWVSSISSSGGWTLYADSVKGRFTISRDNSKNTLYLQMNSLRAEDTAVYYCTRGLKMATIFDYWGQGTLVTVSS", "VL": "QAVLTQPSSLSAPPGASASLTCTLRSGFNVDSYRISWYQQKPGSPPQYLLRYKSDSDKQQGSGVPSRFSGSKDASANAGILLISGLQSEDEADYYCMIWHSSAWVFGGGTKLTVLRQPKAAPQSALTQPASVSGSPGQSITISCTGTSSDVGSYNVVSWYQQHPGKAPKLIIYEVSQRPSGVSNRFSGSKSGNTASLTISGLQTEDEADYYCCSYAGSSIFVIFGGGTKVTVL", "notes": "DVD-Ig, outer AB034 / inner AB116"}, "B7": {"name": "DVD2292 (bispecific antibody)", "VH": "EVQLVESGGGLVQPGGSLRLSCAASGFSLTNYGVHWVRQAPGKGLEWLGVGWSGGNTDYNTPFTSRLTINKDNSKNTVYLQMNSLRAEDTAVYYCARALTWYDYEFAYWGQGTLVTVSSASTKGPEVQLVESGGGLVQPGGSLRLSCAASGFTFSIYSMNWVRQAPGKGLEWVSYISSSSSTIYYADSVKGRFTISRDNAKNSLYLQMNSLRDEDTAVYYCARDRGDFDAFDIWGQGTMVTVSS", "VL": "DILLTQSPGTLSLSPGERATLSCRASQSIYTNIHWYQQKPGQAPRLLIKYASESISGIPDRFSGSGSGTDFTLTISRLEPEDFAVYYCQQNLNWPTTFGQGTKLEIKRTVAAPDIQMTQSPSSLSASVGDRVTITCQASQDITNYLNWYQQKPGKAPKLLIYDASNLETGVPSRFSGSGSGTDFTFTISSLQPEDIATYNCQQCENFPITFGQGTRLEIK", "notes": "DVD-Ig, outer AB400 / inner AB063"}, "B8": {"name": "DVD2294 (bispecific antibody)", "VH": "EVQLVESGGGLVQPGGSLRLSCAASGFSLTNYGVHWVRQAPGKGLEWLGVGWSGGNTDYNTPFTSRLTINKDNSKNTVYLQMNSLRAEDTAVYYCARALTWYDYEFAYWGQGTLVTVSSASTKGPEVQLLESGGGLVQPGGSLRLSCAASGFTFSHYVMAWVRQAPGKGLEWVSSISSSGGWTLYADSVKGRFTISRDNSKNTLYLQMNSLRAEDTAVYYCTRGLKMATIFDYWGQGTLVTVSS", "VL": "DILLTQSPGTLSLSPGERATLSCRASQSIYTNIHWYQQKPGQAPRLLIKYASESISGIPDRFSGSGSGTDFTLTISRLEPEDFAVYYCQQNLNWPTTFGQGTKLEIKRTVAAPQSALTQPASVSGSPGQSITISCTGTSSDVGSYNVVSWYQQHPGKAPKLIIYEVSQRPSGVSNRFSGSKSGNTASLTISGLQTEDEADYYCCSYAGSSIFVIFGGGTKVTVL", "notes": "DVD-Ig, outer AB400 / inner AB116"}, "B9": {"name": "DVD2296 (bispecific antibody)", "VH": "EVQLVESGGGLVQPGGSLRLSCAASGFSLTNYGVHWVRQAPGKGLEWLGVGWSGGNTDYNTPFTSRLTINKDNSKNTVYLQMNSLRAEDTAVYYCARALTWYDYEFAYWGQGTLVTVSSASTKGPQVQLQQWGAGLLKPSETLSLTCAVYGGSFSGYYWSWIRQPPGKGLEWIGEINHSGSTNYNPSLKSRVTISVETSKNQFSLKLSSVTAADTAVYYCARDKWTWYFDLWGRGTLVTVSS", "VL": "DILLTQSPGTLSLSPGERATLSCRASQSIYTNIHWYQQKPGQAPRLLIKYASESISGIPDRFSGSGSGTDFTLTISRLEPEDFAVYYCQQNLNWPTTFGQGTKLEIKRTVAAPDIEMTQSPDSLAVSLGERATINCRSSQSVLYSSSNRNYLAWYQQNPGQPPKLLIYWASTRESGVPDRFSGSGSGTDFTLTISSLQAEDVAVYYCQQYYSTPRTFGQGTKVEIK", "notes": "DVD-Ig, outer AB400 / inner AB062"}, "B10": {"name": "AB067 (antibody, V domains shown)", "VH": "EVQLLESGGGLVQPGGSLRLSCAASGFTFSHYVMAWVRQAPGKGLEWVSSISSSGGWTLYADSVKGRFTISRDNSKNTLYLQMNSLRAEDTAVYYCTRGLKMATIFDYWGQGTLVTVSS", "VL": "QSALTQPASVSGSPGQSITISCTGTSSDVGSYNVVSWYQQHPGKAPKLIIYEVSQRPSGVSNRFSGSKSGNTASLTISGLQTEDEADYYCCSYAGSSIFVIFGGGTKVTVLG", "notes": "parent antibody"}, "B11": {"name": "AB063 (antibody, V domains shown)", "VH": "EVQLVESGGGLVQPGGSLRLSCAASGFTFSIYSMNWVRQAPGKGLEWVSYISSSSSTIYYADSVKGRFTISRDNAKNSLYLQMNSLRDEDTAVYYCARDRGDFDAFDIWGQGTMVTVSS", "VL": "DIQMTQSPSSLSASVGDRVTITCQASQDITNYLNWYQQKPGKAPKLLIYDASNLETGVPSRFSGSGSGTDFTFTISSLQPEDIATYNCQQCENFPITFGQGTRLEIKR", "notes": "parent antibody"}, "B12": {"name": "AB062 (antibody, V domains shown)", "VH": "QVQLQQWGAGLLKPSETLSLTCAVYGGSFSGYYWSWIRQPPGKGLEWIGEINHSGSTNYNPSLKSRVTISVETSKNQFSLKLSSVTAADTAVYYCARDKWTWYFDLWGRGTLVTVSS", "VL": "not shown", "notes": "parent antibody"}}}
{"biological_target": "T1, Recombinant Human ErbB3/FC Chimera-His tag (human, UniProt P21860 20-643)", "T1 construct": "bought reagent", "assay": "SPR (Biacore), C-terminal VD;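 also: surface plasmon resonance with DVD-Ig proteins captured on an anti-IgG chip and recombinant antigen flowed over in HBS-EP buffer, Langmuir global fit, KD taken as koff/kon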"}
{"binder": "B1", "binding result": "no binding (tested: 10-200 nM)"}
{"binder": "B2", "binding result": "no binding (tested: 10-200 nM)"}
{"binder": "B3", "binding result": "no binding (tested: 10-200 nM)"}
{"binder": "B4", "binding result": "no binding (tested: 10-200 nM)"}
{"binder": "B5", "binding result": "no binding (tested: 10-200 nM)"}
{"binder": "B6", "binding result": "no binding (tested: 10-200 nM)"}
{"biological_target": "T2, EGFR on the cell surface (human, UniProt P00533 25-1210)", "T2 construct": "whole, on cells", "assay": "flow cytometry on cells, 2 ug/mL, N-terminal VD;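 also: cells stained for 30 to 60 min on ice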", "protocol": "(§1) Stable cell lines overexpressing a cell-surface antigen of interest or human tumor cell lines were harvested from tissue culture flasks and resuspended in phosphate buffered saline (PBS) containing 5% fetal bovine serum (PBS/FBS). Prior to staining, human tumor cells were incubated on ice with (100 μl) human IgG at 5 μg/ml in PBS/FCS. 1-5×10⁵ cells were incubated with antibody or DVD-Ig (2 μg/mL) in PBS/FBS for 30-60 minutes on ice. […] After 30 minutes incubation on ice, cells were washed twice and resuspended in PBS/FBS. Fluorescence was measured using a Becton Dickinson FACSCalibur (Becton Dickinson, San Jose, Calif.).\n(§2) The geometric mean is the n root of the multiplication product of n fluorescent signals (a1×a2×a3 . . . an). With log-transformed data the geometric mean is used to normalize the weighting of the data distribution."}
{"binder": "B7", "GEO MEAN": 519}
{"binder": "B8", "GEO MEAN": 618}
{"binder": "B9", "GEO MEAN": 490}
{"biological_target": "T3, ErbB3 on the cell surface (human, UniProt P21860 20-1342)", "T3 construct": "whole, on cells", "assay": "flow cytometry on cells, 2 ug/mL;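 also: cells stained for 30 to 60 min on ice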", "protocol": "as §1, §2"}
{"binder": "B10", "GEO MEAN": 127}
{"binder": "B11", "GEO MEAN": 128}
{"binder": "B12", "GEO MEAN": 132}
{"biological_target": "T4, Recombinant Human MSP Receptor ECD-His tag (human, UniProt Q04912 25-957)", "T4 construct": "extracellular domain; bought reagent; also called RON", "assay": "SPR (Biacore), N-terminal VD;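 also: capture of antibodies or DVD-Ig proteins on an anti-mouse IgG chip surface, recombinant antigen injected at 10–200 nM in HBS-EP running buffer at 25 °C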", "units": {"Kd": "nM", "koff": "s⁻¹", "kon": "M⁻¹ s⁻¹"}, "protocol": "The BIACORE assay (Biacore, Inc, Piscataway, N.J.) determined the affinity of antibodies or DVD-Ig proteins with kinetic measurements of on-rate and off-rate constants. Binding of antibodies or DVD-Ig proteins to a target antigen (for example, a purified recombinant target antigen) was determined by surface plasmon resonance-based measurements with a Biacore® 1000 or 3000 instrument (Biacore AB, Uppsala. Sweden) using running HBS-EP (10 mM HEPES [pH 7.4], 150 mM NaCl, 3 mM EDTA, and 0.005% surfactant P20) at 25° C. […] For example, approximately 5000 RU of goat anti-mouse IgG, (Fcγ), fragment specific polyclonal antibody (Pierce Biotechnology Inc, Rockford, Ill.) diluted in 10 mM sodium acetate (pH 4.5) was directly immobilized across a CM5 research grade biosensor chip using a standard amine coupling kit according to manufacturer's instructions and procedures at 25 μg/ml. Unreacted moieties on the biosensor surface were blocked with ethanolamine. Modified carboxymethyl dextran surface in flowcell 2 and 4 was used as a reaction surface. Unmodified carboxymethyl dextran without goat anti-mouse IgG in flow cell 1 and 3 was used as the reference surface. For kinetic analysis, rate equations derived from the 1:1 Langmuir binding model were fitted simultaneously to association and dissociation phases of all eight injections (using global fit analysis) with the use of Biaevaluation 4.0.1 software. Purified antibodies or DVD-Ig proteins were diluted in HEPES-buffered saline for capture across goat anti-mouse IgG specific reaction surfaces. Antibodies or DVD-Ig proteins to be captured as a ligand (25 μg/ml) were injected over reaction matrices at a flow rate of 5 μl/minute. The association and dissociation rate constants, kₒₙ (M⁻¹s⁻¹) and koff (s⁻¹) were determined under a continuous flow rate of 25 μl/minute. Rate constants were derived by making kinetic binding measurements at different antigen concentrations ranging from 10-200 nM. The equilibrium dissociation constant (M) of the reaction between antibodies or DVD-Ig proteins and the target antigen was then calculated from the kinetic rate constants by the following formula: KD=koff/kₒₙ. Binding was recorded as a function of time and kinetic rate constants were calculated."}
{"binder": "B1", "Kd": 17, "koff": 0.00092, "kon": 55000}
{"binder": "B3", "Kd": 25, "koff": 0.00094, "kon": 37000}
{"binder": "B4", "Kd": 17, "koff": 0.00087, "kon": 51000}
{"binder": "B5", "Kd": 4.9}
{"binder": "B6", "binding result": "no binding (tested: 10-200 nM)"}
{"biological_target": "T3, ErbB3 on the cell surface", "assay": "flow cytometry on cells, 2 ug/mL, C-terminal VD;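 also: cells stained for 30 to 60 min on ice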", "protocol": "as §1, §2"}
{"binder": "B7", "GEO MEAN": 20.6}
{"binder": "B8", "GEO MEAN": 15}
{"binder": "B9", "GEO MEAN": 16.6}
